Results as given in patent US11840574B2, “Anti-DR5 antibody and use thereof” (DONG-A ST CO., LTD., priority 2017, dated 2023).
Where a chain is given by its changes, count along the chain named.

B1: DA20: humanized or deimmunized variant of parental clone D0; CDRs SEQ ID NO 1, 2, 7 / 4, 10, 14 (antibody, V domains shown)
VH: EVQLVESGGGLVQPGGSLRLSCAASGFTFSSFNMLWVRQAPGKGLEWVAGIGKSDRYTGYGSAVKGRFTISRDDSKSTVYLQMNSLRAEDTAVYYCVRDAGSGCGSGGWTGACIDTWGQGTLVTVSS
VL: DIQMTQSPSSLSASVGDRVTITCSGGDSYAGSYYYGWYQQKPGKAPKTLIYNNNNRPSGVPSRFSGSRSGTDFTLTISSLQPEDFATYYCGSRDSAGMGAFGQGTKVEIK
B2: DA21: humanized or deimmunized variant of parental clone D0; CDRs SEQ ID NO 1, 2, 7 / 4, 10, 16 (antibody, V domains shown)
VH: B1 VH
VL: B1 VL with A96S, M98A, A100G
B3: DA25: humanized or deimmunized variant of parental clone D0; CDRs SEQ ID NO 1, 2, 7 / 4, 10, 13 (antibody, V domains shown)
VH: AVTLDESGGGLQTPGGGLSLVCKGSGFTFSSFNMLWVRQAPGKGLEWVAGIGKSDRYTGYGSAVKGRATISRDDGQSTVYLQMNSLRAEDTGTYYCVKDAGSGCGSGGWTGACIDTWGHGTEVIVSS
VL: LTQPSSVSANLGGTVEITCSGGDSYAGSYYYGWYQQKAPGSAPVTVIYNNNNRPSNIPSRFSGSTSGSTATLTITGVQAEDEAVYFCGSRDSSYVGIFGAGTTLTVL
B4: DA35: humanized or deimmunized variant of parental clone D0; CDRs SEQ ID NO 1, 2, 7 / 4, 10, 13 (antibody, V domains shown)
VH: B3 VH with V79A, Y80R, G92A, T93V
VL: B3 VL with V84T
B5: DA34: humanized or deimmunized variant of parental clone D0; CDRs SEQ ID NO 1, 2, 7 / 4, 10, 13 (antibody, V domains shown)
VH: B3 VH with V79A, G92A, T93V
VL: B3 VL with V84T, F86Y
B6: DA31: humanized or deimmunized variant of parental clone D0; CDRs SEQ ID NO 1, 2, 7 / 4, 10, 13 (antibody, V domains shown)
VH: B3 VH with V79A, Y80R
VL: B3 VL with V84T
B7: DA32: humanized or deimmunized variant of parental clone D0; CDRs SEQ ID NO 1, 2, 7 / 4, 10, 13 (antibody, V domains shown)
VH: B3 VH with Y80R, M83L, S85N, G92A, T93V
VL: B3 VL
B8: DA33: humanized or deimmunized variant of parental clone D0; CDRs SEQ ID NO 1, 2, 7 / 4, 10, 13 (antibody, V domains shown)
VH: B3 VH with V79A, Y80R, M83L, S85N, G92A, T93V
VL: B3 VL with V84T
B9: DA27: humanized or deimmunized variant of parental clone D0; CDRs SEQ ID NO 1, 2, 7 / 4, 10, 13 (antibody, V domains shown)
VH: B3 VH with Y80R, M83L, S85N
VL: B3 VL with V84T
B10: DA26: humanized or deimmunized variant of parental clone D0; CDRs SEQ ID NO 1, 2, 7 / 4, 10, 13 (antibody, V domains shown)
VH: B3 VH
VL: B3 VL with V84T, F86Y
B11: DA28: humanized or deimmunized variant of parental clone D0; CDRs SEQ ID NO 1, 2, 7 / 4, 10, 13 (antibody, V domains shown)
VH: B3 VH with V79A, Y80R, M83L, S85N
VL: B3 VL
B12: DA30: humanized or deimmunized variant of parental clone D0; CDRs SEQ ID NO 1, 2, 7 / 4, 10, 13 (antibody, V domains shown)
VH: B3 VH with V79A
VL: B3 VL with V84T, F86Y
B13: DA4: humanized or deimmunized variant of parental clone D0; CDRs SEQ ID NO 1, 2, 7 / 4, 10, 13 (antibody, V domains shown)
VH: B1 VH with S77N
VL: B1 VL with R68T, A96S, G97Y, M98V, A100I
B14: DA2: humanized or deimmunized variant of parental clone D0; CDRs SEQ ID NO 1, 2, 7 / 4, 10, 13 (antibody, V domains shown)
VH: B1 VH
VL: B1 VL with A96S, G97Y, M98V, A100I
B15: DA1: humanized or deimmunized variant of parental clone D0; CDRs SEQ ID NO 1, 2, 7 / 4, 10, 13 (antibody, V domains shown)
VH: B1 VH
VL: B1 VL with R68T, A96S, G97Y, M98V, A100I
B16: DA3: humanized or deimmunized variant of parental clone D0; CDRs SEQ ID NO 1, 2, 7 / 4, 10, 13 (antibody, V domains shown)
VH: B1 VH with D74T
VL: B1 VL with R68T, A96S, G97Y, M98V, A100I

biological target: T1, Human DR5 (Homo sapiens, UniProt O14763); assay: TRAIL competitive enzyme-linked immunosorbent assay; format: binding; conditions: 0.01-400 nM of TRAIL protein, absorbance at 405 nm
Protocol: In order to examine antigen-binding characteristics of the antibodies selected in Example 3, a TRAIL competitive enzyme-linked immunosorbent assay was conducted. ELISA plates were coated with 0.1 μg/ml human DR5 (R&D systems, U.S.A.) at 4° C. Thereafter, the plates were incubated with 0.01 nM-1440 nM of antibodies (D0, DA20, DA21, DA21, DA22, and DA23) together with 0.01-400 nM of TRAIL protein for 2 hours. After the plates were washed three times with PBST (0.1% bovine serum albumin and Tween-20 in PBS), HRP (horse radish peroxidase)-conjugated anti-human immunoglobulin Fc was added to each well and incubated for 1 hour. After three washes with PBST, color development was performed for 20 min with ABTS (Thermo, U.S.A.). When the color development reached to a certain level, the reaction was terminated with 1 N sulfuric acid. Absorbance at 405 nm was measured using a spectrophotometer (Molecular Device, U.S.A.) and is depicted in FIGS. 8a and 8b. The antibody AP disclosed in Example (7-1) was used as a control.

Row | Molecule | antigen binding in the presence of TRAIL
1 | B1 | maintained a certain level of antigen binding irrespective of TRAIL concentrations
2 | B2 | maintained a certain level of antigen binding irrespective of TRAIL concentrations

biological target: T1, Human DR5; assay: Binding affinity of antibody to human DR5 (BIAcore, CM5 chip); conditions: association rate, Human DR5, 1:1 Langmuir binding model
Protocol: In order to measure affinity, human DR5 was coupled to carboxylated dextran biosensor chips (CM5, GE) according to the manufacturer's instruction. Association and dissociation rates were assessed by injecting IgG proteins that were 2-fold serially diluted to 5 nM, 2.5 nM, 1.25 nM, 0.625 nM, 0.313 nM, and 0.156 nM.
Association and dissociation rates were depicted in association and dissociation sensorgrams and calculated using a simple 1:1 Langmuir binding model (BIAcore X100 Evaluation Software, ver. 2.0). The equilibrium dissociation constants (KD), which is the ratio of dissociation constant (Kd) to association constant (Ka), were confirmed to be in the sub-nanomolar range. Measurements of the binding of antibody D0 and DA1 to DA35 of the present disclosure to DR5 are given in Table 11 below (antibody names are given as the names of the clones from which the antibodies were derived). A representative sensorgram for D0 is depicted in FIG. 1.

Row | Molecule | Ka(1/Ms) | Ka [M⁻¹ s⁻¹]
3 | B3 | 1.05 × 10^06 1/Ms | –
4 | B4 | 1.13 × 10^06 1/Ms | –
5 | B5 | 1.00 × 10^06 1/Ms | –
6 | B6 | 1.24 × 10^06 1/Ms | –
7 | B7 | 1.14 × 10^06 1/Ms | –
8 | B8 | 1.24 × 10^06 1/Ms | –
9 | B9 | 1.17 × 10^06 1/Ms | –
10 | B10 | 1.09 × 10^06 1/Ms | –
11 | B11 | 1.16 × 10^06 1/Ms | –
12 | B12 | 1.03 × 10^06 1/Ms | –
13 | B1 | 1.00 × 10^06 1/Ms | –
14 | B13 | – | 1.2e+06
15 | B14 | – | 1.9e+06
16 | B15 | – | 4.9e+06
17 | B16 | – | 4.9e+06
18 | B2 | 1.11 × 10^06 1/Ms | –

same assay, conditions: equilibrium dissociation constant, Human DR5

Row | Molecule | Kd [nM]
19 | B3 | 0.00162
20 | B4 | 0.0801
21 | B5 | 0.0942
22 | B6 | 0.0706
23 | B7 | 0.0751
24 | B8 | 0.0788
25 | B9 | 0.00192
26 | B10 | 0.00101
27 | B11 | 0.00389
28 | B12 | 0.0774
29 | B1 | 0.012
30 | B2 | 0.00643
